Among the data in patent US20030199423A1 are Inhibition (%), % Inhibition and percent inhibition of neutrophil binding to ICAM-R values, retold here.

One may read the % Inhibition as the relative decrease from the control value, in per cent. Low values mean little suppression, high ones strong suppression.

The target in experiment [1] is LFA-1 (CD18/CD11a) (human) (UniProt P20701). As to the kind of experiment: inhibition of CD18-dependent adhesion of PMA-treated JY cells to coated shICAM-R, antibody 10 µg/ml; defines total CD18-dependent binding.
Sequence of LFA-1 (CD18/CD11a) (human) (P20701 26-1170, chain 1 of 2): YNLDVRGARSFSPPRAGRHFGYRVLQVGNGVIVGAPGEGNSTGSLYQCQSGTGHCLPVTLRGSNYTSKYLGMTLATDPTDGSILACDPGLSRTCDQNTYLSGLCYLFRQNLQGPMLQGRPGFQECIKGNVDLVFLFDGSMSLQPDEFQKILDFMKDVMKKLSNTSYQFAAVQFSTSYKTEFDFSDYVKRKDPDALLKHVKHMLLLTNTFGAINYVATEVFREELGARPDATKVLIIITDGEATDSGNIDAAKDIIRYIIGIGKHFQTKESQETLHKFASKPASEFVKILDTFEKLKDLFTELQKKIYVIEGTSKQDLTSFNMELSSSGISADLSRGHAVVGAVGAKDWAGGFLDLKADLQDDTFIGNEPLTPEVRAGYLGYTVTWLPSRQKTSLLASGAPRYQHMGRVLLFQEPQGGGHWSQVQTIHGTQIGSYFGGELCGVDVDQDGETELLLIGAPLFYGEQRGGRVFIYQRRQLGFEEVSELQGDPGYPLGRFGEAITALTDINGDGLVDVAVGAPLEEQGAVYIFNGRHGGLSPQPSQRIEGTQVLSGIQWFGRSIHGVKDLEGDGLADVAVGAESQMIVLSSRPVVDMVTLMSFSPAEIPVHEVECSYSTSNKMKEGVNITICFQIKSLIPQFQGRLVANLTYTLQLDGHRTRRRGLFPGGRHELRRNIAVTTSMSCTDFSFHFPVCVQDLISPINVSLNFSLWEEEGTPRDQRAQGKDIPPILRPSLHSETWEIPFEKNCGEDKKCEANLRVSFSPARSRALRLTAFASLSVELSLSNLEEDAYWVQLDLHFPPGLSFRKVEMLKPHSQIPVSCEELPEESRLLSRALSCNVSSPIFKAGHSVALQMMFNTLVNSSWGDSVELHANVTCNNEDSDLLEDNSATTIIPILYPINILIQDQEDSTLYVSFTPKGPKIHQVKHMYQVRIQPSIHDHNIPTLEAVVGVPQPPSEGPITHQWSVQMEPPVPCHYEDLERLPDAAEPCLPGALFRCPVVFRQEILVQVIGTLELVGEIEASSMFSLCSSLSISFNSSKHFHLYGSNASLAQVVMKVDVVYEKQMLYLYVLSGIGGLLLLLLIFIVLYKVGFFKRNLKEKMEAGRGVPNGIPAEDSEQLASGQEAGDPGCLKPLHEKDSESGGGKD
Sequence of LFA-1 (CD18/CD11a) (human) (P05107 23-769, chain 2 of 2, further chain): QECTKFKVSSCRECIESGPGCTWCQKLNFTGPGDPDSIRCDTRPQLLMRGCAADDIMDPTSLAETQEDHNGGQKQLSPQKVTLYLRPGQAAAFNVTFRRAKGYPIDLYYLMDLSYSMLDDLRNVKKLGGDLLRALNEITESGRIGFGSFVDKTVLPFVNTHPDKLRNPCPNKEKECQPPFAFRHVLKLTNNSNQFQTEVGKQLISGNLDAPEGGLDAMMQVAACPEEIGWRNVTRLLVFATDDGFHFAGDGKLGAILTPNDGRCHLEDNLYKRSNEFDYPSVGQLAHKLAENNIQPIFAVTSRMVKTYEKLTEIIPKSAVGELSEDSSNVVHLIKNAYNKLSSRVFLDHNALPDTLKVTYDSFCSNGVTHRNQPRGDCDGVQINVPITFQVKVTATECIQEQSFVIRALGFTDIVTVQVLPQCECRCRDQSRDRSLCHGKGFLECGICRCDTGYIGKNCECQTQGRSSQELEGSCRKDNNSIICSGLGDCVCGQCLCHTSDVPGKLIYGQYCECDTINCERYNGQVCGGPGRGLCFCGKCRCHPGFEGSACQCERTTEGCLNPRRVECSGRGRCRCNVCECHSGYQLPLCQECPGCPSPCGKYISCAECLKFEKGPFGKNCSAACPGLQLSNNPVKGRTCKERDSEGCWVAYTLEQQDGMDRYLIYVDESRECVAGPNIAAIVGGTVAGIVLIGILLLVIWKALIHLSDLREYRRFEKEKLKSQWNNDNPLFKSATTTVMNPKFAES
For experiment [2] the target is unchanged. Kind of experiment: inhibition of SKW3 cell adhesion to coated soluble ICAM-R, peptide 1-2 mg/ml.
For experiment [3] the target is unchanged. Kind of experiment: inhibition of neutrophil adhesion to coated ICAM-R/Ig, antibody 15 µg/ml.

As to anti-CD18 monoclonal antibody 60.3, in experiment [1], the Inhibition (%) was determined as 100%.
“ICAM-R domain 1 peptide (NGSQI), residues 72-76” returned a % Inhibition in experiment [2] of 26%.
In experiment [3], anti-CD11a monoclonal antibody TS1/22 came in with a percent inhibition of neutrophil binding to ICAM-R of 50%.
